The experiment deals with SF3B1 N-terminal region, residues 147-462 (SFB1^147-462) (human) (UniProt O75533). Nature of the experiment: ITC. A general note: ITC needs no label: the signal is the heat of the interaction.

Among the data in article doi:10.1101/2022.01.09.475535 are stoichiometry N (U2AF2^12UL per SF3B1 ULM region) values, retold here.

SF3B1 N-terminal region, residues 147-462 (SFB1^147-462) (human), sequence (O75533 147-462): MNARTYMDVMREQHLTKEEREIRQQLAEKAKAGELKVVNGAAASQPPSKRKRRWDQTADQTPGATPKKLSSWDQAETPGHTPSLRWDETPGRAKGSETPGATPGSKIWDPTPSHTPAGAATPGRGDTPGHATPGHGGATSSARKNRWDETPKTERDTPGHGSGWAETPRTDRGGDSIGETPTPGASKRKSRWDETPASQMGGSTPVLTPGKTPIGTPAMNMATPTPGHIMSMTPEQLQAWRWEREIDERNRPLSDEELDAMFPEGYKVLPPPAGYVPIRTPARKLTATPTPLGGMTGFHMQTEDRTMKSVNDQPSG

“U2AF2^12UL (nearly full-length U2AF2, residues 141-471) (domain or fragment)” gave a stoichiometry N (U2AF2^12UL per SF3B1 ULM region) of 2.
